Experimental data reported in the DeepSol protein solubility set.

Experiment: soluble on expression in E. coli; label from the status in PepcDB or PDB records

Sequence | soluble on expression in E. coli
MPQNYPWLNTEQPLSIKQLNGRVVILDFWTYCCINCLHVLPDLKYLEQKYKDSLTVIGVHSAKFDNEQETENIRQAILRYDIEHPVLVDKDFRVWQEYAVRAWPTLMVIDPKGYVIGYVSGEGNRDKLDQLITQVIQEHQGAINFQQLSLTLEKQRQPLITPLAFPGKVLATPSGLFVADSGHHRIVVSDFNGEILHLIGNGKSGLTDGNFQEAQFSAPQGMAFDMENQILYLADTENHALRRVDINQQTVETIAGTGEQSRNIQPHGGVGLETALNSPWDLVNIENSLYIAMAGVHQIWQMDLASGVIKTYAGTGVEACLDASLTESAFAQPSGITNNEQELYIADSEISSIRGVGLVEPQEVRTVCGSGGLFGFGDVDGQGEDVRLQHCLGVEYFQNYLWVADTYNHKIKSVSPHTGNCQTVLGDGLAGLQNGQGKNTRFFEPSGLSAIDSYLYISDTNNHVIRRVDLRTLEVTTMQFNGLCAPDVCIPNNFLEHHHHHH | soluble
MPQPEQLPGPNADIWNWQLQGLCRGMDSSMFFHPDGERGRARTQREQRAKEMCRRCPVIEACRSHALEVGEPYGVWGGLSESERDLLLKGTMGRTRGIRRTA | not soluble
MPRAVAERGDVVPVLAEVFRSHGFDGASLAVITEHTGLGKGSLYNFFPRGKDEMAEAVLDEVDAWFQTAVYLPLRGSEPAAARLERMFDEVETYFRSGRRICLFGAFALGLERDRFADRVRAYFTDWVDSLAGALADAGHGRPSRPLAEEVVAGIQGALVLARALDDPDSFTRILTRLRRSVGDPTTSRA | soluble
MPRFMRTQTKLRTIIRSNLMLNSSSMEISRSLTSWQKGARSIIHRALQYLEGNLTVIEHFPDQTQTTHEQFGQDKPDAIHAVIEIKHPDFYSRVLKGGSIAAAEAYMEGWWESPNLTALMQLMAANLGTLDKLESQSSPVTQWLNRFTHWLKRNTIDQAKDNIHQHYDLGNELYQLFLDEEMLYSSALFTQPELSLEQAQQAKMQRLCEQLQLKPTDHVLEIGTGWGAMAIYMAQHYGCKVTTTTISEEQYAYAQQKITALGLNNQITLLKQDYRLLSGQYDKLVSIEMIEAVGKAYLPTFLSQCYALLKPRGKMAIQAITIADQRYESYSNNVDFIQKYIFPGGFLPSISVLTELATKRTGLVLRNLHDIGIDYALTLQHWRDRFEQQLPKVRDLGYDERFIRMWRYYFCYCEGGFLARSISTVHMTFERD | not soluble
MPSASASRKSQEKPREIMDAAEDYAKERYGISSMIQSHEKPDRVLVRVRDLTIQKADEVVWVRARVHTSRAKGKQCFLVLRQQQFNVQALVAVGDHASKQMVKFAANINKESIVDVEGVVRKVNQKIGSCTQQDVELHVQKIYVISLAEPRLPLQLDDAVRPEAEGEEEGRATVNQDTRLDNRVIDLRTSTSQAVFRLQSGICHLFRETLINKGFVEIQTPKIISAASEGGANVFTVSYFKNNAYLAQSPQLYKQMCICADFEKVFSIGPVFRAEDSNTHRHLTEFVGLDIEMAFNYHYHEVMEEIADTMVQIFKGLQERFQTEIQTVNKQFPCEPFKFLEPTLRLEYCEALAMLREAGVEMGDEDDLSTPNEKLLGHLVKEKYDTDFYILDKYPLAVRPFYTMPDPRNPKQSNSYDMFMRGEEILSGAQRIHDPQLLTERALHHGIDLEKIKAYIDSFRFGAPPHAGGGIGLERVTMLFLGLHNVRQTSMFPRDPKRLTP | soluble
MPSEKAFIQHLRTASFQGLHLHHFHQKVGKCGVVGFDIHIFPTLLPAAQGILDIQLGLFRIDCAPLAVYRRTQVDFIHTVIDGIASDQAFSEVVQILRRLNLGHFTDTHLIAQARRFIADFGNIRPMRRGKAETFCRCFRFDGIDRIHGDFRQCGHINRLAAGKNCRNGKRDKVFFHAPIIIKFALRKQIVRQEK | not soluble
MPSGVCEPKERSPCMNKIDKLDKELEKAREKAAEWQAKIRELEKQKQEEENSQIVQAVRSLKLTPAQLMAFLNDPKNSLTASGHTDPKPEAPEKEDTAHEEN | not soluble
MPSIRLADLAQQLDAELHGDGDIVITGVASMQSAQTGHITFMVNPKYREHLGLCQASAVVMTQDDLPFAKSAALVVKNPYLTYARMAQILDTTPQPAQNIAPSAVIDATAKLGNNVSIGANAVIESGVELGDNVIIGAGCFVGKNSKIGAGSRLWANVTIYHEIQIGQNCLIQSGTVVGADGFGYANDRGNWVKIPQIGRVIIGDRVEIGACTTIDRGALDDTIIGNGVIIDNQCQIAHNVVIGDNTAVAGGVIMAGSLKIGRYCMIGGASVINGHMEICDKVTVTGMGMVMRPITEPGVYSSGIPLQPNKVWRKTAALVMNIDDMSKRLKSLERKVNQQD | soluble
